# Experimental data reported in patent US20260176319A1 (KALLYOPE, published 2026).
# Starred links: 1 amine or outer side, 2 acyl side, 3 side chain; linkers in the order of their positions; H or OH if unused. Non-standard residues stand in square brackets, D forms with d. *: point of attachment. Trp(6-Me) = Cc1ccc2c(C[C@H](N)C(=O)O)c[nH]c2c1; Trp(7-F) = N[C@@H](Cc1c[nH]c2c(F)cccc12)C(=O)O; Trp(7-Me) = Cc1cccc2c(C[C@H](N)C(=O)O)c[nH]c12; d(γGlu) = O=C(O)[C@@H](CCC(=O)[*:2])N[*:1]; C18 diacid = O=C(O)CCCCCCCCCCCCCCCCC(=O)*; γGlu = O=C(O)[C@H](CCC(=O)[*:2])N[*:1]; Palmitoyl = CCCCCCCCCCCCCCCC(=O)*; 3Pal = N[C@@H](Cc1cccnc1)C(=O)O; Nle = CCCC[C@H](N)C(=O)O; AEEA = NCCOCCOCC(=O)O; Aib = CC(C)(N)C(=O)O; Ava = NCCCCC(=O)O; Sar = CNCC(=O)O
# Target: human GRP receptor (human, UniProt P30550 1-384)
# Test: cell-based or functional assay
# Sequence of human GRP receptor (P30550 whole entry): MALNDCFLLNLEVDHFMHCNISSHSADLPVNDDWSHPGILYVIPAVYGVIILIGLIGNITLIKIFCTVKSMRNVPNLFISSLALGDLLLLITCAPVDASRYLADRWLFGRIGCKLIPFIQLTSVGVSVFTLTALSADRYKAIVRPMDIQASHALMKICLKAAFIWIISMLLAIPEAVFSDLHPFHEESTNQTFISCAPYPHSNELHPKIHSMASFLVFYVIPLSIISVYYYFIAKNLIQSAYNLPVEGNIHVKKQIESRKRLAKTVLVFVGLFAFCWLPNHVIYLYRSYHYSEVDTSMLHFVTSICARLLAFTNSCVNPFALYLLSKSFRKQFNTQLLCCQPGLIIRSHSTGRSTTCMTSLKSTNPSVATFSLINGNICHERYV
row,Binder,hIP1 GRPR EC50
1,{C18 diacid}-[d(γGlu)][AEEA][AEEA]GNH[Trp(7-Me)]AV[dA]HL[Nle][Sar]-NH2 (SMILES CCCC[C@H](NC(=O)[C@H](CC(C)C)NC(=O)[C@H](Cc1c[nH]cn1)NC(=O)[C@@H](C)NC(=O)[C@@H](NC(=O)[C@H](C)NC(=O)[C@H](Cc1c[nH]c2c(C)cccc12)NC(=O)[C@H](Cc1c[nH]cn1)NC(=O)[C@H](CC(N)=O)NC(=O)CNC(=O)COCCOCCNC(=O)COCCOCCNC(=O)CC[C@@H](NC(=O)CCCCCCCCCCCCCCCCC(=O)O)C(=O)O)C(C)C)C(=O)N(C)CC(N)=O) [Peptide 81],0.505 µM
2,{C18 diacid}-[γGlu][AEEA][AEEA][AEEA][AEEA]GNH[Trp(7-Me)]AV[dA]HL[Nle]-NH2 (SMILES CCCC[C@H](NC(=O)[C@H](CC(C)C)NC(=O)[C@H](Cc1c[nH]cn1)NC(=O)[C@@H](C)NC(=O)[C@@H](NC(=O)[C@H](C)NC(=O)[C@H](Cc1c[nH]c2c(C)cccc12)NC(=O)[C@H](Cc1c[nH]cn1)NC(=O)[C@H](CC(N)=O)NC(=O)CNC(=O)COCCOCCNC(=O)COCCOCCNC(=O)COCCOCCNC(=O)COCCOCCNC(=O)CC[C@H](NC(=O)CCCCCCCCCCCCCCCCC(=O)O)C(=O)O)C(C)C)C(N)=O) [Peptide 90],0.0126 µM
3,{C18 diacid}-[d(γGlu)][AEEA][AEEA]GK(Ac)HWAV[dA]HL[Nle][Sar]-NH2 (SMILES CCCC[C@H](NC(=O)[C@H](CC(C)C)NC(=O)[C@H](Cc1c[nH]cn1)NC(=O)[C@@H](C)NC(=O)[C@@H](NC(=O)[C@H](C)NC(=O)[C@H](Cc1c[nH]c2ccccc12)NC(=O)[C@H](Cc1c[nH]cn1)NC(=O)[C@H](CCCCNC(C)=O)NC(=O)CNC(=O)COCCOCCNC(=O)COCCOCCNC(=O)CC[C@@H](NC(=O)CCCCCCCCCCCCCCCCC(=O)O)C(=O)O)C(C)C)C(=O)N(C)CC(N)=O) [Peptide 77],0.184 µM
4,{C18 diacid}-[d(γGlu)][AEEA][AEEA][AEEA][AEEA]GN[3Pal]WAV[dA]HL[Nle]-NH2 (SMILES CCCC[C@H](NC(=O)[C@H](CC(C)C)NC(=O)[C@H](Cc1c[nH]cn1)NC(=O)[C@@H](C)NC(=O)[C@@H](NC(=O)[C@H](C)NC(=O)[C@H](Cc1c[nH]c2ccccc12)NC(=O)[C@H](Cc1cccnc1)NC(=O)[C@H](CC(N)=O)NC(=O)CNC(=O)COCCOCCNC(=O)COCCOCCNC(=O)COCCOCCNC(=O)COCCOCCNC(=O)CC[C@@H](NC(=O)CCCCCCCCCCCCCCCCC(=O)O)C(=O)O)C(C)C)C(N)=O) [Peptide 83],0.109 µM
5,GNHWAVXHLX (Gly-Asn-His-Trp-Ala-Val-D-Ala-His-Leu-Nle-NH2) [Peptide 6],0.0268 µM
6,{C18 diacid}-[d(γGlu)][AEEA][AEEA]GNH[Trp(6-Me)]AV[dA]HL[Nle][Sar]-NH2 (SMILES CCCC[C@H](NC(=O)[C@H](CC(C)C)NC(=O)[C@H](Cc1c[nH]cn1)NC(=O)[C@@H](C)NC(=O)[C@@H](NC(=O)[C@H](C)NC(=O)[C@H](Cc1c[nH]c2cc(C)ccc12)NC(=O)[C@H](Cc1c[nH]cn1)NC(=O)[C@H](CC(N)=O)NC(=O)CNC(=O)COCCOCCNC(=O)COCCOCCNC(=O)CC[C@@H](NC(=O)CCCCCCCCCCCCCCCCC(=O)O)C(=O)O)C(C)C)C(=O)N(C)CC(N)=O) [Peptide 84],2.55 µM
7,{C18 diacid}-[d(γGlu)][AEEA][AEEA]GNH[Trp(6-Me)]AV[dA]HL[Nle]-NH2 (SMILES CCCC[C@H](NC(=O)[C@H](CC(C)C)NC(=O)[C@H](Cc1c[nH]cn1)NC(=O)[C@@H](C)NC(=O)[C@@H](NC(=O)[C@H](C)NC(=O)[C@H](Cc1c[nH]c2cc(C)ccc12)NC(=O)[C@H](Cc1c[nH]cn1)NC(=O)[C@H](CC(N)=O)NC(=O)CNC(=O)COCCOCCNC(=O)COCCOCCNC(=O)CC[C@@H](NC(=O)CCCCCCCCCCCCCCCCC(=O)O)C(=O)O)C(C)C)C(N)=O) [Peptide 79],0.529 µM
8,Palmitoyl-[γGlu][AEEA][AEEA]GRHWAV[dA]HL[Nle]-NH2 (SMILES CCCCCCCCCCCCCCCC(=O)N[C@@H](CCC(=O)NCCOCCOCC(=O)NCCOCCOCC(=O)NCC(=O)N[C@@H](CCCNC(=N)N)C(=O)N[C@@H](Cc1c[nH]cn1)C(=O)N[C@@H](Cc1c[nH]c2ccccc12)C(=O)N[C@@H](C)C(=O)N[C@H](C(=O)N[C@H](C)C(=O)N[C@@H](Cc1c[nH]cn1)C(=O)N[C@@H](CC(C)C)C(=O)N[C@@H](CCCC)C(N)=O)C(C)C)C(=O)O) [Peptide 89],0.00157 µM
9,{C18 diacid}-[d(γGlu)][Ava]GNHWAV[dA]HL[Nle]-NH2 (SMILES CCCC[C@H](NC(=O)[C@H](CC(C)C)NC(=O)[C@H](Cc1c[nH]cn1)NC(=O)[C@@H](C)NC(=O)[C@@H](NC(=O)[C@H](C)NC(=O)[C@H](Cc1c[nH]c2ccccc12)NC(=O)[C@H](Cc1c[nH]cn1)NC(=O)[C@H](CC(N)=O)NC(=O)CNC(=O)CCCCNC(=O)CC[C@@H](NC(=O)CCCCCCCCCCCCCCCCC(=O)O)C(=O)O)C(C)C)C(N)=O) [Peptide 80],0.00511 µM
10,{C18 diacid}-[d(γGlu)][AEEA][AEEA][AEEA][AEEA]GNH[Trp(7-Me)]AV[dA]HL-NH2 (SMILES Cc1cccc2c(C[C@H](NC(=O)[C@H](Cc3c[nH]cn3)NC(=O)[C@H](CC(N)=O)NC(=O)CNC(=O)COCCOCCNC(=O)COCCOCCNC(=O)COCCOCCNC(=O)COCCOCCNC(=O)CC[C@@H](NC(=O)CCCCCCCCCCCCCCCCC(=O)O)C(=O)O)C(=O)N[C@@H](C)C(=O)N[C@H](C(=O)N[C@H](C)C(=O)N[C@@H](Cc3c[nH]cn3)C(=O)N[C@@H](CC(C)C)C(N)=O)C(C)C)c[nH]c12) [Peptide 78],0.014 µM
11,Palmitoyl-[γGlu][AEEA][AEEA]GNH[Trp(7-F)]AV[dA]HL[Nle]-NH2 (SMILES CCCCCCCCCCCCCCCC(=O)N[C@@H](CCC(=O)NCCOCCOCC(=O)NCCOCCOCC(=O)NCC(=O)N[C@@H](CC(N)=O)C(=O)N[C@@H](Cc1c[nH]cn1)C(=O)N[C@@H](Cc1c[nH]c2c(F)cccc12)C(=O)N[C@@H](C)C(=O)N[C@H](C(=O)N[C@H](C)C(=O)N[C@@H](Cc1c[nH]cn1)C(=O)N[C@@H](CC(C)C)C(=O)N[C@@H](CCCC)C(N)=O)C(C)C)C(=O)O) [Peptide 87],0.00173 µM
12,{C18 diacid}-[γGlu][AEEA][AEEA]GNH[Trp(7-Me)]AV[dA]HL[Nle]-NH2 (SMILES CCCC[C@H](NC(=O)[C@H](CC(C)C)NC(=O)[C@H](Cc1c[nH]cn1)NC(=O)[C@@H](C)NC(=O)[C@@H](NC(=O)[C@H](C)NC(=O)[C@H](Cc1c[nH]c2c(C)cccc12)NC(=O)[C@H](Cc1c[nH]cn1)NC(=O)[C@H](CC(N)=O)NC(=O)CNC(=O)COCCOCCNC(=O)COCCOCCNC(=O)CC[C@H](NC(=O)CCCCCCCCCCCCCCCCC(=O)O)C(=O)O)C(C)C)C(N)=O) [Peptide 85],0.0147 µM
13,{C18 diacid}-[d(γGlu)][AEEA][AEEA]GNH[Trp(7-Me)]AV[dA]HL[Nle][Aib]-NH2 (SMILES CCCC[C@H](NC(=O)[C@H](CC(C)C)NC(=O)[C@H](Cc1c[nH]cn1)NC(=O)[C@@H](C)NC(=O)[C@@H](NC(=O)[C@H](C)NC(=O)[C@H](Cc1c[nH]c2c(C)cccc12)NC(=O)[C@H](Cc1c[nH]cn1)NC(=O)[C@H](CC(N)=O)NC(=O)CNC(=O)COCCOCCNC(=O)COCCOCCNC(=O)CC[C@@H](NC(=O)CCCCCCCCCCCCCCCCC(=O)O)C(=O)O)C(C)C)C(=O)NC(C)(C)C(N)=O) [Peptide 76],0.358 µM
14,{C18 diacid}-[γGlu][AEEA][AEEA]GNH[Trp(7-F)]AV[dA]HL[Nle]-NH2 (SMILES CCCC[C@H](NC(=O)[C@H](CC(C)C)NC(=O)[C@H](Cc1c[nH]cn1)NC(=O)[C@@H](C)NC(=O)[C@@H](NC(=O)[C@H](C)NC(=O)[C@H](Cc1c[nH]c2c(F)cccc12)NC(=O)[C@H](Cc1c[nH]cn1)NC(=O)[C@H](CC(N)=O)NC(=O)CNC(=O)COCCOCCNC(=O)COCCOCCNC(=O)CC[C@H](NC(=O)CCCCCCCCCCCCCCCCC(=O)O)C(=O)O)C(C)C)C(N)=O) [Peptide 86],0.0176 µM
15,{C18 diacid}-[d(γGlu)][AEEA][AEEA]GNHWAV[dA]HL[Nle][Aib]-NH2 (SMILES CCCC[C@H](NC(=O)[C@H](CC(C)C)NC(=O)[C@H](Cc1c[nH]cn1)NC(=O)[C@@H](C)NC(=O)[C@@H](NC(=O)[C@H](C)NC(=O)[C@H](Cc1c[nH]c2ccccc12)NC(=O)[C@H](Cc1c[nH]cn1)NC(=O)[C@H](CC(N)=O)NC(=O)CNC(=O)COCCOCCNC(=O)COCCOCCNC(=O)CC[C@@H](NC(=O)CCCCCCCCCCCCCCCCC(=O)O)C(=O)O)C(C)C)C(=O)NC(C)(C)C(N)=O) [Peptide 82],1.23 µM
16,EXXGNHWAVGHLM (Octadecanedioyl-D-γGlu-OEG-OEG-Gly-Asn-His-Trp-Ala-Val-Gly-His-Leu-Met-NH2) [Peptide 5],0.0075 µM
17,{C18 diacid}-[γGlu][AEEA][AEEA]GRHWAV[dA]HL[Nle]-NH2 (SMILES CCCC[C@H](NC(=O)[C@H](CC(C)C)NC(=O)[C@H](Cc1c[nH]cn1)NC(=O)[C@@H](C)NC(=O)[C@@H](NC(=O)[C@H](C)NC(=O)[C@H](Cc1c[nH]c2ccccc12)NC(=O)[C@H](Cc1c[nH]cn1)NC(=O)[C@H](CCCNC(=N)N)NC(=O)CNC(=O)COCCOCCNC(=O)COCCOCCNC(=O)CC[C@H](NC(=O)CCCCCCCCCCCCCCCCC(=O)O)C(=O)O)C(C)C)C(N)=O) [Peptide 88],0.00551 µM
